IntAct's records for PubMed 19525971

B1: Charged multivesicular body protein 3 (Homo sapiens), Q9Y3E7-1 (parent)
chain: MGLFGKTQEKPPKELVNEWSLKIRKEMRVVDRQIRDIQREEEKVKRSVKDAAKKGQKDVCIVLAKEMIRSRKAVSKLYASKAHMNSVLMGMKNQLAVLRVAGSLQKSTEVMKAMQSLVKIPEIQATMRELSKEMMKAGIIEEMLEDTFESMDDQEEMEEEAEMEIDRILFEITAGALGKAPSKVTDALPEPEPPGAMAASEDEEEEEEALEAMQSRLATLRS
partner: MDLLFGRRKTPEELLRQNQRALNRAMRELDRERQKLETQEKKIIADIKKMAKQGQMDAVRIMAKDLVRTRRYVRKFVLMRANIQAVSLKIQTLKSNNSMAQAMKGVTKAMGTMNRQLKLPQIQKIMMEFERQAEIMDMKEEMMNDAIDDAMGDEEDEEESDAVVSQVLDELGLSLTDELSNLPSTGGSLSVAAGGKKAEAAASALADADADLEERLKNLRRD

Variants of: B1
Details: with chm2a_human CHMP2A

effect of a mutation on the interaction | Variant
disrupting interaction | V59D;V62D;I168D;L169D
disrupting interaction | V59D;V62D
